Measured values taken from patent US12365732 (23ANDME, dated 2025).

T1: hu-CD96 isoform 1 on HEK293T cells (human, UniProt P40200 22-585)
T1 construct: Origene RC213845, transient expression; also called HEK293T-CD96 (iso1)
T1 sequence: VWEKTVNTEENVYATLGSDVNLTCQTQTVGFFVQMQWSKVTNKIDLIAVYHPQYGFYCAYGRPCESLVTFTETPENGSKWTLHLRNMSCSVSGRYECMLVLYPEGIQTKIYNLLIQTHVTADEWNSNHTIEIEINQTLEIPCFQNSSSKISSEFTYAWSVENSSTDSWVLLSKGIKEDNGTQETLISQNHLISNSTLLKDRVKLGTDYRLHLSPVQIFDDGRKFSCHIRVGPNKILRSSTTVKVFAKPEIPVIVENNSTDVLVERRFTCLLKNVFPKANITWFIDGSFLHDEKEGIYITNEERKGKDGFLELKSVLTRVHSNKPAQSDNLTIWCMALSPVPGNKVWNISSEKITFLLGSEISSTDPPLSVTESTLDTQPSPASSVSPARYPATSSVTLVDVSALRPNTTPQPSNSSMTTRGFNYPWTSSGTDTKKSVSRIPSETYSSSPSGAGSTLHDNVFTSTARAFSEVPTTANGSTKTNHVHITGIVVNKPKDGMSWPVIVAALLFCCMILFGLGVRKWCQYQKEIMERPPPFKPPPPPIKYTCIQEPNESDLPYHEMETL

T2: hu-CD96 isoform 2 on CHO cells (human, UniProt P40200 22-585)
T2 construct: also called CHO-CD96 (isoform 2); CD96-CHOs
T2 sequence: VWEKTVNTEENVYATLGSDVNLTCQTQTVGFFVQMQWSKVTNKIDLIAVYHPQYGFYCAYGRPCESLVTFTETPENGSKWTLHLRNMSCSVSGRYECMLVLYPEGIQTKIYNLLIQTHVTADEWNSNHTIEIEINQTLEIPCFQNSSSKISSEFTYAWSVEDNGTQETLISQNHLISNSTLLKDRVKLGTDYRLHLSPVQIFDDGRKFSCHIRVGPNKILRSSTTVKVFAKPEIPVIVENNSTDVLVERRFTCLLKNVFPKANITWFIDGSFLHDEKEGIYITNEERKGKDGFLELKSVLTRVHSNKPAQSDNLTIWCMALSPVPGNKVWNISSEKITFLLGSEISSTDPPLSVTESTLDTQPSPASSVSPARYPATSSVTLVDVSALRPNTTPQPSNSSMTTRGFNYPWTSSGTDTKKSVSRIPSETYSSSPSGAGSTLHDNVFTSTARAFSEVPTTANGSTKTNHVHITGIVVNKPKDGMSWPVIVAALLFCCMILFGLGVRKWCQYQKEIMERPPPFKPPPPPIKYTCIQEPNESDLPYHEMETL

T3: cynomolgus monkey CD96 on cynomolgus monkey PBMCs (cynomolgus monkey, UniProt A0A2K5TWV6 22-569)
T3 construct: whole, on cells
T3 sequence: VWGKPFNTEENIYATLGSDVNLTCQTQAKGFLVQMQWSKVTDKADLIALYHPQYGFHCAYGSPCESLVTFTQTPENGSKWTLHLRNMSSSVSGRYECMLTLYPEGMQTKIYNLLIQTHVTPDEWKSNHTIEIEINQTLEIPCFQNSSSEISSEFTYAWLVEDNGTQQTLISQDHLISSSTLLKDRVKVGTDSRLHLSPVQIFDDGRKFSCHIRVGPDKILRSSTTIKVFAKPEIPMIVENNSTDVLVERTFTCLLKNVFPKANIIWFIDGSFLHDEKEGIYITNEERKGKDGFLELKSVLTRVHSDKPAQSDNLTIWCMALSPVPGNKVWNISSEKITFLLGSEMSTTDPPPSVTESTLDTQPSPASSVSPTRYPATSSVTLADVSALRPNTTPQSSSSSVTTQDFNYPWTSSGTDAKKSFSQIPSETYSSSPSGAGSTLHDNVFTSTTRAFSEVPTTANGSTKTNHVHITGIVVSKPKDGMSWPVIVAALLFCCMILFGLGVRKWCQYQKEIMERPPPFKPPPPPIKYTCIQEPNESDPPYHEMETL

B1: 10G1 (clone 10G1.3G8), purified hybridoma antibody (antibody, V domains shown)
VH: QIQLVQSGPELKKPGETVKISCKASGYPFTTYGMSWVKQAPGKGLKWMGWINTDSGVPTYADDFKGRFAFSLETSANTAYLQINSLKNEDAATYFCARNIYYGWGNFDYWGQGTILTVSS
VL: DILMTQSPTTLSVTPGETVSLSCRASQDIYRNLHWYQQKSQGTPRLLIKHASDSISGIPSRFTGSGSGTDFTLSINSVKPEDEGIYYCLQGYSMPYTFGGGTKLEIK
notes: murine hybridoma IgG
B2: 9H4, purified hybridoma antibody (antibody, V domains shown)
VH: EVQLLETGGGLVKSGGSLKLSCAASGFTFSDYYMYWVRQTPEKRLEWVAAISDDGTYTYYPDSVKGRFTISRDNANNYLYLQMSSLKSEDTAIYYCAKAGSYDYFDVWGAGTTVTVSS
VL: DIVLTQSPASLAVSLGQRAIISCKASQSVTFADTGLMHWYQQKPGQQPKLLIYRASNLEVGVPTRFSGSGSGTDFTLNIHPVEEEDVATYYCQQSREYPWTFGGGTKLEIK
notes: murine hybridoma IgG
B3: 7E5, purified hybridoma antibody (antibody, V domains shown)
VH: QVQLKESGPGLVAPSQSLSIICTVSGFSLTNYGIHWIRQPPGKGLEWLGIIWAGGSTNYNSALMSRLTISKDNSKSQVFLKMNSLQTNDTAIYYCARVSMMGFAYWGQGTLVTVSA
VL: QAVVTQESALTTSPGETVTLTCRSSTGAVTTSNYANWVQEKPDHLFTGLIGGTNNRAPGVPARFSGSLIGDKAALTITGAQTEDEAIYFCSLWYGSHWVFGGGTKLTVL
notes: murine hybridoma IgG
B4: mAb1.v7 IgG (humanized 12F8) (antibody, V domains shown)
VH: EVQLVQSGAEVKKPGASVKVSCKASGFTFTNNWMHWVRQAPGQGLEWIGMIHPNSGITNINEKFKNRVTMTTDTSTSTAYMELRSLRSEDTAVYYCRSDGTYEGYFDYWGQGTLVTVSS
VL: DIQLTQSPSSLSASVGDRVTITCKASQNVGTAIVWYQQKPGKAPKVLIYSASTRYTGVPSRFSGSGSGTDFTLTISSLQPEDFATYYCQQYSSSPLTFGQGTKVEIKG
notes: human IgG1 N297G
B5: mAb1.v7.NGS9 IgG (antibody, V domains shown)
VH: EVQLVQSGAEVKKPGASVKVSCKASGFTFTNNFMHWVRQAPGQGLEWIGMIHANSGITNINEKFKNRVTMTTDTSTSTAYMELRSLRSEDTAVYYCRSDGVYEGYFDYWGQGTLVTVSS
VL: DIQLTQSPSSLSASVGDRVTITCKASQNVGTAIVWYQQKPGKAPKVLIYSASTRYTGVPSRFSGSGSGTDFTLTISSLQPEDFATYYCQQYSSSPLTFGQGTKVEIKG
notes: human IgG1 N297G
B6: mAb1.v7.NGS10 IgG (antibody, V domains shown)
VH: EVQLVQSGAEVKKPGASVKVSCKASGFTFTNNFMHWVRQAPGQGLEWIGFIHANSGITNINEKFKNRVTMTTDTSTSTAYMELRSLRSEDTAVYYCRSDGIYEGYFDYWGQGTLVTVSS
VL: DIQLTQSPSSLSASVGDRVTITCKASQNVGTAIVWYQQKPGKAPKVLIYSASTRYTGVPSRFSGSGSGTDFTLTISSLQPEDFATYYCQQYSSSPLTFGQGTKVEIKG
notes: human IgG1 N297G
B7: mAb1.v7.NGS11 IgG (antibody, V domains shown)
VH: EVQLVQSGAEVKKPGASVKVSCKASGFTFTNNFMHWVRQAPGQGLEWIGFIHANSGITNINEKFKNRVTMTTDTSTSTAYMELRSLRSEDTAVYYCRSDGVYEGYFDYWGQGTLVTVSS
VL: DIQLTQSPSSLSASVGDRVTITCKASQNVGTAIVWYQQKPGKAPKVLIYSASTRYTGVPSRFSGSGSGTDFTLTISSLQPEDFATYYCQQYSSSPLTFGQGTKVEIKG
notes: human IgG1 N297G
B8: h10G1 IgG (humanized 10G1) (antibody, V domains shown)
VH: EIQLVQSGSELKKPGASVKVSCKASGYPFTTYGMSWVRQAPGQGLEWMGWINTDSGVPTYADDFKGRFVFSLDTSVSTAYLQISSLKAEDTAVYFCARNIYYGWGNFDYWGQGTLVTVSS
VL: EIVMTQSPDFQSVTPKEKVTITCRASQDIYRNLHWYQQKPDQTPKLLIKHASDSISGIPSRFSGSGSGTDFTLTINSLEAEDAAAYYCLQGYSMPYTFGGGTKVEIKG
notes: human IgG1 N297G

Experiments:
[1] = molecular target: T1, hu-CD96 isoform 1 on HEK293T cells; assay: FACS, Ab 2 nM
Procedure: (§1) Isoform 1 of hu-CD96 (Origene, catalog #RC213845) was transiently expressed in HEK293T cells following standard lipofectamine or Fugene transfection protocol. […] Cells were washed, and binding was detected by incubation with anti-mouse IgG-FITC (Biolegend, catalog #406001) for 20 minutes at 4° C. Cell binding was analyzed by flow cytometry with a CytoFLEX (Beckman Coulter). Binding curves were calculated as a percentage of cells positive for bound antibody.

[2] = molecular target: T1, hu-CD96 isoform 1 on HEK293T cells; assay: FACS, Ab 50 nM
Procedure: as §1

[3] = molecular target: T1, hu-CD96 isoform 1 on HEK293T cells; assay: FACS, Ab 0.4 nM
Procedure: as §1

[4] = molecular target: T1, hu-CD96 isoform 1 on HEK293T cells; assay: FACS, Ab 0.08 nM
Procedure: as §1

[5] = molecular target: T1, hu-CD96 isoform 1 on HEK293T cells; assay: FACS, Ab 0.016 nM
Procedure: as §1

[6] = molecular target: T2, hu-CD96 isoform 2 on CHO cells; assay: FACS, % positive curve
Procedure: as §1
Isoform 2 of hu-CD96 (DNA construct: Origene, catalog #RC221005) was expressed on a single-cell-clone-derived CHO stable cell line. Binding of the anti-CD96 antibodies to the CHO cells were determined as described above with isoform 1 of hu-CD96.

[7] = molecular target: T3, cynomolgus monkey CD96 on cynomolgus …; assay: FACS, Ab 16 nM
Procedure: The ability of the anti-CD96 antibodies to bind primary immune cells from human and cynomolgus monkey with lower level of receptor expression was measured. Human PBMCs (StemCell Technologies, catalog #70025) and cynomolgus monkey PBMCs (Primate Biologicals, catalog #CM-MC) were incubated with human TruStain FcX (Biolegend, catalog #422302) for 10 minutes at 4° C., followed by incubation with an anti-CD96 antibody for 20 minutes at 4° C. Cells were washed and the anti-CD96 antibody binding was detected by incubation with anti-mouse IgG-PE (Thermo Fisher, catalog #M30204) or anti-human IgG (Fab) 2-PE (Thermo Fisher, catalog #H10104) for 20 minutes at 4° C. Cells were washed, and immune subtypes were labeled with anti-CD3 (BD, catalog #557705), anti-CD4 (Biolegend, catalog #317424) and anti-CD8 (BD, catalog #557760) for 20 minutes at 4° C. Cell binding was analyzed by flow cytometry with a CytoFLEX (Beckman Coulter). Binding curves were calculated as a percentage of cells positive for bound antibody in the cell type of interest.

Row | Binder | % positive [1] [%] | % positive [2] [%] | % positive [3] [%] | % positive [4] [%] | % positive [5] [%] | EC50 [6] [nM] | % positive [7] [%]
1 | B1 | 48.1 | 56.1 | 34.6 | 16.5 | 4.4 | 0.23 | –
2 | B2 | 28.5 | 57.8 | 13.9 | 1.5 | 0.5 | 0.38 | –
3 | B3 | 37.1 | 52.1 | 20.4 | 8.5 | 1 | 0.11 | –
4 | B4 | 27.3 | 61 | 12.2 | 0.8 | 0.5 | 0.52 | –
5 | B5 | – | – | – | – | – | – | 76.1
6 | B6 | – | – | – | – | – | – | 78.5
7 | B7 | – | – | – | – | – | – | 80.8
8 | B8 | – | – | – | – | – | – | 66.1
